This is an account of results in article PMC8556265.

This assay addresses Lsi1_(cryst) (rice Low silicon rice 1, ΔN44/ΔC24/K50R/C66A/T93V/C139A/K232R/T253V/K264R) (rice (Oryza sativa cv. Nipponbare)). The assay can be described thus: crystal structure; X-ray, 1.8 Å; sitting drop vapour diffusion at 7 °C, 39-50% PEG 400, 100 mM Gly-NaOH pH 9.5, 1% OG, 0.1% CHS; space group P2_(1), two tetramers built.

Consider “Lsi1_(cryst) (rice Low silicon rice 1, ΔN44/ΔC24/K50R/C66A/T93V/C139A/K232R/T253V/K264R) (domain or fragment)”, for which the stoichiometry N came to 4.
